US20240317847A1 (Bayer, published 2024)
Substitutions are numbered along the chain they refer to. Numbers in names are those of the source. Where “and” joins values, the source holds several entries; their conditions need not be identical. Equal entries are not always repeated.

T1: murine IL-11 (mouse, UniProt P47873 22-199)
T1 construct: bought from Invigate; also called mIL-11; mIL11
T1 sequence: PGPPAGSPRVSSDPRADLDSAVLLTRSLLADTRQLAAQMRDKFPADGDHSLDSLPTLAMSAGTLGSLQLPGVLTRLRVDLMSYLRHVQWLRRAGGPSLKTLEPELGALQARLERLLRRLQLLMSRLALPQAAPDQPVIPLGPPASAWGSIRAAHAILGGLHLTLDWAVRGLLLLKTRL

T2: human IL-11 (human, UniProt P20809 22-199)
T2 construct: bought from Invigate; also called hIL-11; hIL11
T2 sequence: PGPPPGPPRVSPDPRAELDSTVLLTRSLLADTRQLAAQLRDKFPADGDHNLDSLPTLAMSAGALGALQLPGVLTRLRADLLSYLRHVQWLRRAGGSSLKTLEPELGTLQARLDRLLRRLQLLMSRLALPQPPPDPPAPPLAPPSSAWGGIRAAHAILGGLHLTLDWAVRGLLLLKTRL

B1: TPP-31312 (antibody, IgG4, V domains shown)
VH: EVQLLESGGGLVQPGGSLRLSCAASGFTFSHYDMNWLRQAPGKGLEWVGVISYDGSNKFYADFVKGRFTISRDNSKNTLYLQMNSLRAEDTAVYYCARTPGSHFDYWGQGTLVTVSS
VL: QSVLTQPPSASGTPGQRVTISCSGSSSNIGNNAVNWYQQLPGTAPKLLIYYDDLLPSGVPDRFSGSKSGTSASLAISGLRSEDEADYYCSAWDDSLNGVVFGGGTKLTVL
notes: also called WT antibody; chimeric antibody
B2: TPP-31313 (antibody, IgG4, V domains shown)
VH: B1 VH with E1Q, L5V, L11V, G16R, N35H, L37V, G49A, D54E, F63S
VL: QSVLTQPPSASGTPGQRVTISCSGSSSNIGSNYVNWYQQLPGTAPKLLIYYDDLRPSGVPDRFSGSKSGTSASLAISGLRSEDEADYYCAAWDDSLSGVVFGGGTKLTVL
notes: hIgG4 SPLE, lambda; also called FB; fundamental backbone
B3: TPP-31314 (antibody, IgG4, V domains shown)
VH: B1 VH with L5V, L11V, G16R, N35H, L37V, G49A, D54E, F63S
VL: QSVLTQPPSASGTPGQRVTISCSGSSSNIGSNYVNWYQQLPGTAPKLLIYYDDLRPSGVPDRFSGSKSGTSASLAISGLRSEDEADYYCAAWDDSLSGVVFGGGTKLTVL
notes: hIgG4 SPLE, lambda; FB - 1, back mutation VH-Q1E
B4: TPP-31315 (antibody, IgG4, V domains shown)
VH: B1 VH with E1Q, L11V, G16R, N35H, L37V, G49A, D54E, F63S
VL: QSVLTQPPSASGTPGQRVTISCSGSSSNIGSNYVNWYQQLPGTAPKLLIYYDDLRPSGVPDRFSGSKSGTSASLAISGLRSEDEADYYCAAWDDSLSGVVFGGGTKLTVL
notes: hIgG4 SPLE, lambda; FB - 1, back mutation VH-V5L
B5: TPP-31316 (antibody, IgG4, V domains shown)
VH: B1 VH with E1Q, L5V, G16R, N35H, L37V, G49A, D54E, F63S
VL: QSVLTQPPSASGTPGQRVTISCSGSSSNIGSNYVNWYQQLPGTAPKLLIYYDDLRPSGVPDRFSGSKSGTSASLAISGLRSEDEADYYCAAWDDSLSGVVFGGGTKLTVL
notes: hIgG4 SPLE, lambda; FB - 1, back mutation VH-V11L
B6: TPP-31317 (antibody, IgG4, V domains shown)
VH: B1 VH with E1Q, L5V, L11V, N35H, L37V, G49A, D54E, F63S
VL: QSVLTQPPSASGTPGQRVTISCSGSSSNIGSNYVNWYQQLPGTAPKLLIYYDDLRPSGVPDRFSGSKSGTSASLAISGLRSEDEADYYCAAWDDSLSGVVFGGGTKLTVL
notes: hIgG4 SPLE, lambda; FB - 1, back mutation VH-R16G
B7: TPP-31318 (antibody, IgG4, V domains shown)
VH: B1 VH with E1Q, L5V, L11V, G16R, L37V, G49A, D54E, F63S
VL: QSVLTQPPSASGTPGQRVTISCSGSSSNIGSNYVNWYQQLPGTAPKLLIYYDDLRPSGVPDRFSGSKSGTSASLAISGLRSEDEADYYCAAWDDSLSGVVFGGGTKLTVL
notes: hIgG4 SPLE, lambda; FB - 1, back mutation VH-H35N
B8: TPP-31319 (antibody, IgG4, V domains shown)
VH: B1 VH with E1Q, L5V, L11V, G16R, N35H, G49A, D54E, F63S
VL: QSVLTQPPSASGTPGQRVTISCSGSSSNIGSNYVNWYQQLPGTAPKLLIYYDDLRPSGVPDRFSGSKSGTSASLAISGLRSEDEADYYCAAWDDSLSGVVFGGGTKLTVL
notes: hIgG4 SPLE, lambda; FB - 1, back mutation VH-V37L
B9: TPP-31320 (antibody, IgG4, V domains shown)
VH: B1 VH with E1Q, L5V, L11V, G16R, N35H, L37V, D54E, F63S
VL: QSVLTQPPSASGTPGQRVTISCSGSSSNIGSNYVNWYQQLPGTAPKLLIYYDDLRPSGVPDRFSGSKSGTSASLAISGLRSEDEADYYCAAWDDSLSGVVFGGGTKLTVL
notes: hIgG4 SPLE, lambda; FB - 1, back mutation VH-A49G
B10: TPP-31321 (antibody, IgG4, V domains shown)
VH: B1 VH with E1Q, L5V, L11V, G16R, N35H, L37V, G49A, D54E
VL: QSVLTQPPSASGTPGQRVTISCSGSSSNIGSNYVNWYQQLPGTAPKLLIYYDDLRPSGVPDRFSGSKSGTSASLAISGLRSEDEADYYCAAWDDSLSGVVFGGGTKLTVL
notes: hIgG4 SPLE, lambda; FB - 1, back mutation VH-S63F
B11: TPP-31322 (antibody, IgG4, V domains shown)
VH: B1 VH with E1Q, L5V, L11V, G16R, N35H, L37V, G49A, D54E, F63S
VL: B1 VL with A33Y, L55R, S90A, N97S
notes: hIgG4 SPLE, lambda; FB - 1, back mutation VL-S31N
B12: TPP-31323 (antibody, IgG4, V domains shown)
VH: B1 VH with E1Q, L5V, L11V, G16R, N35H, L37V, G49A, D54E, F63S
VL: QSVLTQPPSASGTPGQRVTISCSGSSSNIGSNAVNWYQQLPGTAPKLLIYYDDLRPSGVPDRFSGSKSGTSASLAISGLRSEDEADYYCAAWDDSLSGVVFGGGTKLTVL
notes: hIgG4 SPLE, lambda; FB - 1, back mutation VL-Y33A
B13: TPP-31324 (antibody, IgG4, V domains shown)
VH: B1 VH with E1Q, L5V, L11V, G16R, N35H, L37V, G49A, D54E, F63S
VL: B1 VL with N31S, A33Y, S90A, N97S
notes: hIgG4 SPLE, lambda; FB - 1, back mutation VL-R55L
B14: TPP-31326 (antibody, IgG4, V domains shown)
VH: B1 VH with E1Q, L5V, L11V, G16R, N35H, L37V, G49A, D54E, F59Y, F63S
VL: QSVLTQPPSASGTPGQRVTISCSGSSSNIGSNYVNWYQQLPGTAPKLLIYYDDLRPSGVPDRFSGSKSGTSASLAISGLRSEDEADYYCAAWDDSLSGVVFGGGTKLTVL
notes: hIgG4 SPLE, lambda; FB + 1, plus VH-F59Y
B15: TPP-31327 (antibody, IgG4, V domains shown)
VH: B1 VH with E1Q, L5V, L11V, G16R, N35H, L37V, G49A, D54E, F63S
VL: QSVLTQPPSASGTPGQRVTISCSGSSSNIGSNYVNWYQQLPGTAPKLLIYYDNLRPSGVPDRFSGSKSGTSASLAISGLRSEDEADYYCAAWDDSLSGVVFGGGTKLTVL
notes: hIgG4 SPLE, lambda; FB + 1, plus VL-D53N
B16: TPP-31328 (antibody, IgG4, V domains shown)
VH: B1 VH with E1Q, L5V, L11V, G16R, N35H, L37V, G49A, D54E, F59Y, F63S
VL: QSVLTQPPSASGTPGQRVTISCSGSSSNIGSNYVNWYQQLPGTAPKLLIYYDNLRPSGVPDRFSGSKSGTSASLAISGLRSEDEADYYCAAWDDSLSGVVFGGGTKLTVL
notes: hIgG4 SPLE, lambda; FB + 2, plus VH-F59Y & VL-D53N
B17: TPP-31325 (antibody, human IgG4 S228P, lambda, V domains shown)
VH: B1 VH with E1Q, L5V, L11V, G16R, N35H, L37V, G49A, D54E, F63S
VL: QSVLTQPPSASGTPGQRVTISCSGSSSNIGSNYVNWYQQLPGTAPKLLIYYDDLRPSGVPDRFSGSKSGTSASLAISGLRSEDEADYYCSAWDDSLSGVVFGGGTKLTVLG
notes: hIgG4-SPLE, Lambda; also called final germline; FB with a back-mutation VL-A90S
B18: TPP-19867 (antibody, V domains shown)
VH: EVQLLESGGGLVQPGGSLRLSCAASGFTFSSYGMHWVRQAPGKGLEWVSVISYDGSSKYYADSVKGRFTISRDNSKNTLYLQMNSLRAEDTAVYYCAAGVPDYWGQGTLVTVSS
VL: QSVLTQPPSASGTPGQRVTISCTGSSSNIGAGYDVHWYQQLPGTAPKLLIYSNNERPSGVPDRFSGSKSGTSASLAISGLRSEDEADYYCAAWDDSLNGPVFGGGTKLTVL
B19: TPP-19868 (antibody, V domains shown)
VH: B18 VH with S57Y, K58T
VL: B18 VL
B20: TPP-19872 (antibody, V domains shown)
VH: B18 VH with S49A, S57Y
VL: B18 VL
B21: TPP-19873 (antibody, V domains shown)
VH: B18 VH with S57N
VL: B18 VL
B22: TPP-19874 (antibody, V domains shown)
VH: B18 VH with S57Y, A98R
VL: B18 VL

Columns and labels:
murine IL-11 [1] = target: T1, murine IL-11; experiment: SPR, IgG captured via anti-human Fc, IL-11 as analyte
Experimental: (§1) Antibody binding affinity to hIL-11 (Invigate, Germany, e.g., lot #C121021-19) and mIL-11 (Invigate, Germany, e.g., lot #C210819-09) was detected using Biacore 8K. Each antibody was captured on an anti-human IgG Fc antibody immobilized CM5 sensor chip (GE). hIL-11 and mIL-11 at different concentrations (0, 5, 15.82 and 50 nM) in 1×HBS-EP+ (pH 7.4) (GE healthcare) were injected over the sensor chip at a flow rate of 30 μL/min for an association phase of 120 s, followed by 200 s dissociation phase. The chip was then regenerated by 10 mM Glycine, pH 1.5 after each binding cycle.
(§2) The sensorgrams of blank surface and buffer channel were subtracted from the test sensorgrams. The experimental data was fitted by 1:1 model using Langmiur analysis. Molecular weight of 19.3 kDa was used to calculate the molar concentration of human and mouse IL-11.
(§3) 16 AB were produced as described in Example 21 and binding of purified AB to human and mouse IL-11 was analyzed using SPR as described in Example 21.

human IL-11 [2] = target: T2, human IL-11; experiment: as above
Experimental: as §1, §2, §3

murine IL-11 [3] = target: T1, murine IL-11; experiment: cell-based or functional assay
human IL-11 [4] = target: T2, human IL-11; experiment: cell-based or functional assay
murine IL-11 [5] = target: T1, murine IL-11; experiment: cell-based or functional assay; remark: listed apart in the source
human IL-11 [6] = target: T2, human IL-11; experiment: cell-based or functional assay; remark: listed apart in the source
murine IL-11 [7] = target: T1, murine IL-11; experiment: SPR, antibody captured, IL-11 as analyte
Experimental: (§4) Antibodies were captured via anti-mouse Fc IgGs (“Mouse antibody capture kit, Order No. BR100383, Cytiva) covalently amine coupled to a Series S CM5 sensor chip (Cytiva). The amine coupling was carried out according to the manufacturer's instructions using 1-ethyl-3-(3-dimethylaminopropyl) carbodiimide hydrochloride (EDC), N-hydroxysuccinimide (NHS) and ethanolamine HCl, pH 8.5 (“Amine Coupling Kit” BR-1000-50, Cytiva.). Human IL-11 (Invigate, e.g., lot #C121021-19), and murine IL-11 (Invigate, e.g., lot #C210819-09) were used as analytes. […] Based on that experiment an IL-11 concentration range was chosen to optimally determine kinetics and affinity of anti-IL-11 antibodies in multicycle kinetics mode. The sensor surface was regenerated with glycine pH 1.7 after each antigen injection. Obtained sensorgrams were double referenced (subtraction of reference flow cell signal and buffer injection) and were fitted to a 1:1 Langmuir binding model to derive kinetic data using the Biacore T200 Evaluation software or the Biacore Insight software.
(§5) Deviations from closest human germlines in CDR regions and FW regions and potential CMC relevant residues in CDR regions were adjusted by site directed mutagenesis following standard molecular protocols or purchased from DNA synthesis providers. The generated DNA constructs were expressed by transient transfection of mammalian cells and purified as described in Example 15. Antibodies were then tested for human IL-11 and murine IL-11 binding by SPR as described in Example 16.

human IL-11 [8] = target: T2, human IL-11; experiment: SPR, antibody captured, IL-11 as analyte
Experimental: as §4, §5

Kd (murine IL-11 [1]) | Kd (human IL-11 [2]) | IC50, RGA 1 (murine IL-11 [3]) | IC50, RGA 2 (murine IL-11 [3]) | IC50, RGA 1 (human IL-11 [4]) | IC50, RGA 2 (human IL-11 [4]) | IC50, RGA (murine IL-11 [5]) | IC50, RGA (human IL-11 [6]) | Kd (murine IL-11 [7]) | Kd (human IL-11 [8]) | Binder
9.3 nM | 5.3 nM | 31 nM and 75 nM | 20 nM | 163 nM and 171 nM | 80 nM | 9.8 nM | 8.9 nM |  |  | B1
0.64 nM | 0.89 nM |  |  |  |  | 1.6 nM | 5.4 nM |  |  | B2
0.59 nM | 0.87 nM |  |  |  |  | 1.2 nM | 2.4 nM |  |  | B3
0.65 nM | 0.87 nM |  |  |  |  | 1.7 nM | 2.9 nM |  |  | B4
0.62 nM | 0.85 nM |  |  |  |  | 1.1 nM | 3.2 nM |  |  | B5
0.58 nM | 0.83 nM |  |  |  |  | 1.5 nM | 2.9 nM |  |  | B6
0.3 nM | 0.89 nM |  |  |  |  | 1.2 nM | 3.8 nM |  |  | B7
0.59 nM | 0.83 nM |  |  |  |  | 1.6 nM | 2.3 nM |  |  | B8
0.56 nM | 0.95 nM |  |  |  |  | 1.1 nM | 2.8 nM |  |  | B9
0.67 nM | 0.85 nM |  |  |  |  | 1 nM | 2.8 nM |  |  | B10
0.69 nM | 0.81 nM |  |  |  |  | 1.4 nM | 1.7 nM |  |  | B11
1.7 nM | 2.4 nM |  |  |  |  | 3.5 nM | 7.1 nM |  |  | B12
0.5 nM | 0.79 nM |  |  |  |  | 1 nM | 2.9 nM |  |  | B13
1.2 nM | 1.7 nM |  |  |  |  | 3.3 nM | 3.6 nM |  |  | B14
0.85 nM | 1 nM |  |  |  |  | 2.1 nM | 3.1 nM |  |  | B15
1.8 nM | 1.8 nM |  |  |  |  | 2.1 nM | 7.9 nM |  |  | B16
0.35 nM | 0.59 nM |  |  |  |  | 0.6 nM | 1.2 nM |  |  | B17
 |  |  |  |  |  |  |  | 3.4 nM | 27 nM | B18
 |  |  |  |  |  |  |  | 0.72 nM | 6.2 nM | B19
 |  |  |  |  |  |  |  | 0.47 nM | 5.5 nM | B20
 |  |  |  |  |  |  |  | 4 nM | 21 nM | B21
 |  |  |  |  |  |  |  | 9.9 nM | 99 nM | B22
